Article PMC6499999

Legend:
[1] = target: RelSt3 relaxase encoded by ICESt3 from Streptococcus thermophilus (Streptococcus thermophilus (ICESt3)); experiment: AUC; sedimentation velocity at 1 and 5 uM in 20 mM Tris-HCl pH 7.5, 500 mM NaCl, 25 °C, 42,000 rpm, absorbance at 280 nm; c(s) analysis with Sedfit
[2] = target: RelSt3 relaxase encoded by ICESt3 from Streptococcus thermophilus (Streptococcus thermophilus (ICESt3)); experiment: SEC; calibrated Superdex 200 gel filtration, final step of purification; single elution peak at 72.4 mL, apparent molecular weight about 88 kDa against a predicted 48.5 kDa
[3] = target: RelSt3 relaxase encoded by ICESt3 from Streptococcus thermophilus (Streptococcus thermophilus (ICESt3)); experiment: cross-linking; 5 ug RelSt3 in 20 uL with 0.001 to 0.1% glutaraldehyde, 15 min at room temperature, stopped with glycine; 10% SDS-PAGE, Coomassie

stoichiometry N [1]: 2
stoichiometry N [2]: 2
stoichiometry N [3]: 2
Substance: RelSt3 relaxase encoded by ICESt3 from Streptococcus thermophilus (enzyme)
